T1: recombinant hIL-10Ra (hIL-10Ra): FLAG-tagged protein (human, UniProt Q13651 22-235)
T1 construct: The order of the receptor part and the FLAG tag is unknown; also called huIL-10Ra; not shown: FLAG tag
T1 sequence (looked up): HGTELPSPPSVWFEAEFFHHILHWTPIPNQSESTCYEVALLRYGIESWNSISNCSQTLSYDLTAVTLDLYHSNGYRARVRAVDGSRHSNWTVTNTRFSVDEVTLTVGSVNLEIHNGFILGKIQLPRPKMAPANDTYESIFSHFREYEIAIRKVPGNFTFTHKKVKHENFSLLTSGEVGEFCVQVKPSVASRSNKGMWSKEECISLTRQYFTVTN

B1: recombinant cyno IL-10 (cyno IL-10) (ligand, UniProt P79338 19-178, looked up)
chain: SPGQGTQSENSCTRFPGNLPHMLRDLRDAFSRVKTFFQMKDQLDNILLKESLLEDFKGYLGCQALSEMIQFYLEEVMPQAENHDPDIKEHVNSLGENLKTLRLRLRRCHRFLPCENKSKAVEQVKNAFSKLQEKGVYKAMSEFDIFINYIEAYMTMKIRN
B2: recombinant human IL-10 dimer (hIL-10-dimer) (ligand, UniProt P22301 19-178, looked up)
chain: SPGQGTQSENSCTHFPGNLPNMLRDLRDAFSRVKTFFQMKDQLDNLLLKESLLEDFKGYLGCQALSEMIQFYLEEVMPQAENQDPDIKAHVNSLGENLKTLRLRLRRCHRFLPCENKSKAVEQVKNAFNKLQEKGIYKAMSEFDIFINYIEAYMTMKIRN
notes: also called hu IL-10
B3: rat anti hIL-10 mAb 12G8 (r12G8): JES3.12G8 (antibody, V domains shown)
VH: EVQLVESGGGLVRPGGSLRLSCTASGFTFSDYHMAWVRQSPDKGLEWVASITLDATYTYYRDSVRGRFTISRNNAKTTLYLQMDSLRSEDTATFYCTRHRGFSVWLDYWGQGVMVTVSS
VL: DIQMTQSPSLLSASVGDRVTLNCKTSQNIFENLAWYQQKLREPPKLLIFNASPLQAGIPSRFSGSGSGTDFTLTITSLQPEDVATYFCHQYYSGYTFGPGTKLELKR
notes: Rat monoclonal antibody; also called Rat 12G8; JES.12G8
B4: Monoclonal humanized antibody SCH 708980 to recombinant human IL-10 (humanized 12G8) (antibody, human IgG1, kappa, V domains shown)
VH: QVQLVESGGGVVQPGRSLRLSCAASGFTFSDYHMAWVRQAPGKGLEWVASITLDATYTYYRDSVRGRFTISRDNSKNTLYLQMNSLRAEDTAVYYCARHRGFSVWLDYWGQGTLVTVSS
VL: DIQMTQSPSSLSASVGDRVTITCKTSQNIFENLAWYQQKPGKAPKLLIYNASPLQAGVPSRFSGSGSGTDFTLTISSLQPEDFATYYCHQYYSGYTFGPGTKLELKR
notes: also called h12G8; hu12G8
B5: recombinant mouse IL-10 (mIL-10) (ligand, UniProt P18893 19-178, looked up)
chain: SRGQYSREDNNCTHFPVGQSHMLLELRTAFSQVKTFFQTKDQLDNILLTDSLMQDFKGYLGCQALSEMIQFYLVEVMPQAEKHGPEIKEHLNSLGEKLKTLRMRLRRCHRFLPCENKSKAVEQVKSDFNKLQDQGVYKAMNEFDIFINCIEAYMMIKMKS

Columns and labels:
[1] = target: B4; assay: IGEN competitive ECLA, mean ± S.D. (n); summary of Table 15
Text: (§1) Materials used. 96 well Polypropylene plates (Costar, Cat. No. 3365, Fisher Sci. Cat. No. 07200697); assay buffer of 0.1% BSA, 0.05% tween 20, PBS pH 7.5; paramagnetic beads (Streptavidin-Dynabeads, Igen, Inc., Cat. No. 110029); recombinant human IL-10 dimer (hIL-10-dimer); recombinant human IL-10-monomer (hlL-10-mono); recombinant mouse IL-10 (mIL-10); recombinant cyno IL-10 (cyno IL-10); and recombinant hIL-10Ra (hL-10Ra): FLAG-tagged protein. Ori-Tag labeled anti-FLAG M2 monoclonal antibodies were prepared using Ori-Tag-NHS ester (Igen, Inc. Cat. No. 110034) according to manufacturer's protocol (OriTag label: IgG challenge ratio 8:1). Anti-Flag M2 monoclonal antibodies were purchased from Sigma (Cat. No. F3165). Ori-Tag labeled anti hIgG 1A2 monoclonal antibodies were prepared as above using rat anti hIgG monoclonal antibodies. Ori-Tag labeled anti rat IgG antibodies were prepared as above from polyclonal Goat anti rat IgG (H+L) antibodies (Jackson Immunoresearch Laboratories, Inc. PA, Cat. No. 112-005-143). Biotinylated recombinant human IL-10 (hIL-10-biotin) was prepared using TFP-PEO-biotin (Pierce, Cat. No. 21219) according to manufacturer's recommendations (Pierce bulletin 0874). The rat anti hIL-10 mAb 12G8 (r12G8): JES3.12G8 and humanized anti hIL-10 mAb 12G8 (hl2G8-1) were prepared as described herein.
(§2) Protocol. ⅓ serial dilutions in 50 microliters of the assay buffer were made in 96-well microtiter plate for all unlabeled IL-10 preparations (mIL-10, cyno IL-10, hIL-10 dimer, hIL-10 mono) starting with 3 μg/ml in the first well. All samples were run in duplicates. 50 μl of hIL-10-biotin at 25 ng/ml was added to each well, followed by the addition of either hIL-10Ra (50 μl at 100 ng/ml) or […] (50 μl at 10 ng/ml). 50 microliters of Ori-Tag conjugated secondary antibodies was added to each well at 500 ng/ml conc. For hIL-10Ra, r12G8 and h12G8 the following Ori-Tag conjugated were used accordingly: anti-FLAG M2-OriTag, anti-rat IgG-OriTag and anti hIgG 1A2-OriTag. Finally to each well 50 μl of Streptavidin-Dynabeads at 0.1 mg/ml was added. After a one hour incubation at room temperature the plate was processed by the M-series M8/384 analyzer. Percent inhibition of the signal by unlabeled IL-10 preparations was calculated relative to the control samples. To plot the data and calculate IC₅₀ the GraphPad Prism Software was used.

[2] = target: B3; assay: as above
Text: as §1, §2

[3] = target: T1, recombinant hIL-10Ra (hIL-10Ra): …; assay: competitive ECLA (IGEN): unlabeled IL-10 varied, competitor hIL-10-biotin
Text: as §1, §2

[4] = target: B4; assay: as above
Text: as §1, §2

[5] = target: B3; assay: as above
Text: as §1, §2

[6] = target: B5; assay: Biacore, mean ± S.D. (n); format not described
[7] = target: B1; assay: Biacore, mean ± S.D. (n); format not described
[8] = target: B2; assay: Biacore, mean ± S.D. (n); format not described
[9] = target: B2; assay: KinExA, mean (n)
[10] = target: B1; assay: KinExA, solution equilibrium, cyno IL-10 run #3
Method: (§3) The equilibrium dissociation constant (Kd) for humanized antibody SCH 708980 was determined using KinExA 3000 (Sapidyne Instruments Inc.). KinExA uses the principle of the Kinetic Exclusion Assay method based on measuring the concentration of uncomplexed antibody in a mixture of antibody, antigen and antibody-antigen complex. The concentration of free antibody was measured by exposing the mixture to a solid-phase immobilized antigen for a very brief period of time. In practice, this was accomplished by flowing the solution phase antigen-antibody mixture past antigen coated particles trapped in a flow cell. Data generated by the instrument were analyzed using custom software. Equilibrium constants were calculated using a mathematical theory based on the following assumptions: [0139] 1. The binding follows the reversible binding equation for equilibrium: Kₒₙ[Ab][Ag]=Koff[AbAg] [0140] 2. Antibody and antigen bind 1:1, and total antibody equals antigen-antibody complex plus free antibody [0141] 3. Instrument signal is linearly related to free antibody concentration
(§4) For cyno IL-10 runs the following conditions were used: [0163] Sample volume: 2 ml [0164] Sample flow rate: 0.25 ml/min [0165] Label volume: 1 ml [0166] Label flow rate: 0.25 ml/min [0167] mAb conc.: 0.1 nM [0168] Highest Ag (mIL-10) conc.: 5.0 nM [0169] Lowest Ag (mIL-10) conc.: 4.88 pM […]

[11] = target: B1; assay: KinExA, solution equilibrium, cyno IL-10 run #1
Method: as §3, §4

[12] = target: B5; assay: KinExA, solution equilibrium, mIL-10 run #2
Method: as §3
(§5) For mIL-10 runs the following conditions were used: [0154] […] Sample flow rate: 0.25 ml/min [0156] Label volume: 0.5 ml [0157] Label flow rate: […] [0158] mAb conc.: 1 nM [0159] Highest Ag (mIL-10) conc.: 50 nM [0160] Lowest Ag (mIL-10) conc.: 48.8 pM […]

[13] = target: B5; assay: KinExA, solution equilibrium, mIL-10 run #3
Method: as §3, §5

[14] = target: B2; assay: KinExA, solution equilibrium, hIL-10 run #2
Method: as §3
(§6) Experimental conditions: All runs were done in duplicate. For hIL-10 runs the following conditions were used: [0145] Sample volume: 1.5 ml [0146] Sample flow rate: 0.25 ml/min [0147] Label volume: 0.5 ml [0148] Label flow rate: 0.25 ml/min [0149] mAb conc.: 0.1 nM [0150] Highest Ag (hlL-10) conc.: 4.0 nM [0151] […]

[15] = target: B2; assay: KinExA, solution equilibrium, hIL-10 run #3
Method: as §3, §6

[16] = target: B5; assay: KinExA, mean ± S.D. (n) of the runs of Table 14
[17] = target: B1; assay: KinExA, mean ± S.D. (n) of the runs of Table 14
[18] = target: B2; assay: KinExA, mean ± S.D. (n) of the runs of Table 14
[19] = target: B2; assay: KinExA, solution equilibrium, hIL-10 run #1
Method: as §3, §6

[20] = target: B1; assay: KinExA, solution equilibrium, cyno IL-10 run #2
Method: as §3, §4

[21] = target: B5; assay: KinExA, solution equilibrium, mIL-10 run #1
Method: as §3, §5

[22] = target: T1, recombinant hIL-10Ra (hIL-10Ra): …; assay: competitive ECLA (IGEN): unlabeled IL-10 against hIL-10-biotin for FLAG-tagged hIL-10Ra
Text: as §1, with “Biotinylated recombinant human IL-10 (hIL-10-biotin) was prepared using TFP-PEO-biotin (Pierce, Cat. No. 21219) according to manufacturer's recommendations (Pierce bulletin 0874). The rat anti hIL-10 mAb 12G8 (r12G8): JES3.12G8 and humanized anti hIL-10 mAb 12G8 (hl2G8-1) were prepared as described herein.” left out
Protocol. ⅓ serial dilutions in 50 microliters of the assay buffer were made in 96-well microtiter plate for all unlabeled IL-10 preparations (mIL-10, cyno IL-10, hIL-10 dimer, hIL-10 mono) starting with 3 μg/ml in the first well. […] Percent inhibition of the signal by unlabeled IL-10 preparations was calculated relative to the control samples. […]

Row | IC50 [1] [nM] | IC50 [2] [nM] | IC50 [3] [nM] | IC50 [4] [nM] | IC50 [5] [nM] | Kd [6] [nM] | Kd [7] [nM] | Kd [8] [nM] | Binder | other results
1 | 4.9 | 6.6 | 17.6 | 4.9 | 6.6 | – | – | – | B1 | –
2 | 4 | 4.7 | 2.9 | 4 | 4.7 | – | – | – | B2 | –
3 | – | – | – | – | – | 7.4 | 0.33 | 0.277 | B3 | Kd [9]: 0.023 nM
4 | – | – | – | – | – | 8.6 | 0.659 | 0.511 | B4 | Kd [10]: 0.0925 nM; Kd [11]: 0.0397 nM; Kd [12]: 0.267 nM; Kd [13]: 0.308 nM; Kd [14]: 0.0323 nM; Kd [15]: 0.0155 nM; Kd [16]: 0.286 nM; Kd [17]: 0.076 nM; Kd [18]: 0.025 nM; Kd [19]: 0.0274 nM; Kd [20]: 0.0966 nM; Kd [21]: 0.282 nM
5 | 53 | 38 | – | 53 | 37.9 | – | – | – | B5 | binding result [22]: no binding (tested: unlabeled IL-10 titrated from 3 µg/ml)

Source: US20050101770A1 (SCHERING, published 2005)
